# From patent publication US20210340217A1, “NOVEL PEPTIDES AND COMBINATION OF PEPTIDES FOR USE IN IMMUNOTHERAPY AGAINST OVARIAN CANCER AND OTHER CANCERS” (Immatics Biotechnologies GmbH, priority 2017, published 2021)
# Tests used:
# HLA-B*44:02 = HLA-B*44:02 (Homo sapiens, UniProt P01889, A223V/A65T/A93T/A95T/D201E/D98Y/E176V/E187L/E204Q/E69K/G107R/H137Y/K202T/L105A/L119I/N104T/N87E/Q56L/Q94N/R106L/R155S/R180D/S101N/S121R/S35A/S48T/T118I/V36M/W191S/Y140D/Y91S); experiment: MHC binding assay (UV-ligand exchange, beta2m ELISA); details: peptide exchange yield
# Text: (§1) Candidate peptides for T cell based therapies according to the present invention were further tested for their MHC binding capacity (affinity). The individual peptide-MHC complexes were produced by UV-ligand exchange, where a UV-sensitive peptide is cleaved upon UV-irradiation, and exchanged with the peptide of interest as analyzed. Only peptide candidates that can effectively bind and stabilize the peptide-receptive MHC molecules prevent dissociation of the MHC complexes. To determine the yield of the exchange reaction, an ELISA was performed based on the detection of the light chain (β2m) of stabilized MHC complexes. The assay was performed as generally described in Rodenko et al. (Rodenko et al., 2006).
# (§2) 96 well MAXISorp plates (NUNC) were coated over night with 2 ug/ml streptavidin in PBS at room temperature, washed 4× and blocked for 1 h at 37° C. in 2% BSA containing blocking buffer. Refolded HLA-A*02:01/MLA-001 monomers served as standards, covering the range of 15-500 ng/ml. Peptide-MHC monomers of the UV-exchange reaction were diluted 100-fold in blocking buffer. Samples were incubated for 1 h at 37° C., washed four times, incubated with 2 ug/ml HRP conjugated anti-β2m for 1h at 37° C., washed again and detected with TMB solution that is stopped with […]. Absorption was measured at 450 nm. Candidate peptides that show a high exchange yield (preferably higher than 50%, most preferred higher than 75%) are generally preferred for a generation and production of antibodies or fragments thereof, and/or T cell receptors or fragments thereof, as they show sufficient avidity to the MHC molecules and prevent dissociation of the MHC complexes.
# HLA-B*07:02 = HLA-B*07:02 (Homo sapiens, UniProt P01889); experiment: as above; details: peptide exchange yield
# Text: as §1, §2
Peptide exchange (HLA-B*44:02),Peptide exchange (HLA-B*07:02),Substance
“++” (>20% = ++),,52 (AEFLLRIFL; listed as Homo sapiens) [compound 52]
“+++” (>50 = +++),,53 (MEHPGKLLF; listed as Homo sapiens) [compound 53]
“+++” (>50 = +++),,54 (AEITITTQTGY; listed as Homo sapiens) [compound 54]
“+++” (>50 = +++),,55 (HETETRTTW; listed as Homo sapiens) [compound 55]
“+++” (>50 = +++),,56 (SEPDTTASW; listed as Homo sapiens) [compound 56]
“+++” (>50 = +++),,57 (QESDLRLFL; listed as Homo sapiens) [compound 57]
“++” (>20% = ++),,58 (GEMEQKQL; listed as Homo sapiens) [compound 58]
“+++” (>50 = +++),,59 (SENVTMKVV; listed as Homo sapiens) [compound 59]
“+++” (>50 = +++),,173 (AEAQVGDERDY; listed as Homo sapiens) [compound 173]
“++++” (>75% = ++++),,174 (AEATARLNVF; listed as Homo sapiens) [compound 174]
“++” (>20% = ++),,175 (AEIEPKADG; listed as Homo sapiens) [compound 175]
“+++” (>50 = +++),,176 (AEIEPKADGSW; listed as Homo sapiens) [compound 176]
“+++” (>50 = +++),,177 (TEVGTMNLF; listed as Homo sapiens) [compound 177]
“+++” (>50 = +++),,178 (NELFRDGVNW; listed as Homo sapiens) [compound 178]
“++” (>20% = ++),,179 (REAGDEFEL; listed as Homo sapiens) [compound 179]
“++” (>20% = ++),,180 (REAGDEFELRY; listed as Homo sapiens) [compound 180]
“++” (>20% = ++),,181 (GEGPKTSW; listed as Homo sapiens) [compound 181]
“+++” (>50 = +++),,182 (KEATEAQSL; listed as Homo sapiens) [compound 182]
“++” (>20% = ++),,183 (YEKGIMQKV; listed as Homo sapiens) [compound 183]
“+++” (>50 = +++),,184 (AELEALTDLW; listed as Homo sapiens) [compound 184]
“++” (>20% = ++),,185 (AERQPGAASL; listed as Homo sapiens) [compound 185]
“++” (>20% = ++),,186 (REGPEEPGL; listed as Homo sapiens) [compound 186]
“+++” (>50 = +++),,187 (GEAQTRIAW; listed as Homo sapiens) [compound 187]
“+++” (>50 = +++),,188 (AEFAKKQPWW; listed as Homo sapiens) [compound 188]

Peptide exchange (HLA-B*44:02),Peptide exchange (HLA-B*07:02),Substance
“++” (>20% = ++),,189 (KEFLFNMY; listed as Homo sapiens) [compound 189]
“++” (>20% = ++),,190 (YEVARILNL; listed as Homo sapiens) [compound 190]
“+++” (>50 = +++),,191 (EEDAALFKAW; listed as Homo sapiens) [compound 191]
“+++” (>50 = +++),,192 (YEFKFPNRL; listed as Homo sapiens) [compound 192]
“++” (>20% = ++),,193 (LEAQQEAL; listed as Homo sapiens) [compound 193]
“++” (>20% = ++),,194 (KEVDPTSHSY; listed as Homo sapiens) [compound 194]
“++” (>20% = ++),,195 (AEDKRHYSV; listed as Homo sapiens) [compound 195]
“+++” (>50 = +++),,196 (REMPGGPVW; listed as Homo sapiens) [compound 196]
“+++” (>50 = +++),,197 (AEVLLPRLV; listed as Homo sapiens) [compound 197]
“++” (>20% = ++),,198 (QEAARAAL; listed as Homo sapiens) [compound 198]
“+++” (>50 = +++),,199 (REIDESLIFY; listed as Homo sapiens) [compound 199]
“+++” (>50 = +++),,200 (AESIPTVSF; listed as Homo sapiens) [compound 200]
“+++” (>50 = +++),,201 (AETILTFHAF; listed as Homo sapiens) [compound 201]
,“+++” (>50 = +++),358 (SPSPVTSTL; listed as Homo sapiens) [compound 358]
,“+++” (>50 = +++),359 (SPSTIKLTM; listed as Homo sapiens) [compound 359]
,“++” (>20% = ++),360 (SPSVSSNTY; listed as Homo sapiens) [compound 360]
,“+++” (>50 = +++),361 (SPTHVTQSL; listed as Homo sapiens) [compound 361]
,“+++” (>50 = +++),362 (SPVPVTSLF; listed as Homo sapiens) [compound 362]
,“++” (>20% = ++),363 (TAKTPDATF; listed as Homo sapiens) [compound 363]
,“++” (>20% = ++),364 (TPLATTQRF; listed as Homo sapiens) [compound 364]
,“++” (>20% = ++),365 (TPLATTQRFTY; listed as Homo sapiens) [compound 365]
,“++” (>20% = ++),367 (TPSVVTEGF; listed as Homo sapiens) [compound 367]
,“++” (>20% = ++),368 (VPTPVFPTM; listed as Homo sapiens) [compound 368]
,“+++” (>50 = +++),369 (FPHSEMTTV; listed as Homo sapiens) [compound 369]

Peptide exchange (HLA-B*44:02),Peptide exchange (HLA-B*07:02),Substance
,“+” (>10% = +),370 (PGGTRQSL; listed as Homo sapiens) [compound 370]
,“++” (>20% = ++),371 (LYVDGFTHW; listed as Homo sapiens) [compound 371]
,“+++” (>50 = +++),372 (IPRNPPPTLL; listed as Homo sapiens) [compound 372]
,“+++” (>50 = +++),373 (RPRALRDLRIL; listed as Homo sapiens) [compound 373]
,“+++” (>50 = +++),374 (NPIGDTGVKF; listed as Homo sapiens) [compound 374]
,“++” (>20% = ++),375 (AAASPLLLL; listed as Homo sapiens) [compound 375]
,“+++” (>50 = +++),376 (RPRSPAGQVA; listed as Homo sapiens) [compound 376]
,“+++” (>50 = +++),377 (RPRSPAGQVAAA; listed as Homo sapiens) [compound 377]
,“+++” (>50 = +++),378 (RPRSPAGQVAA; listed as Homo sapiens) [compound 378]
,“+++” (>50 = +++),379 (GPFPLVYVL; listed as Homo sapiens) [compound 379]
,“+++” (>50 = +++),380 (IPTYGRTF; listed as Homo sapiens) [compound 380]
,“++” (>20% = ++),381 (LPEQTPLAF; listed as Homo sapiens) [compound 381]
,“+++” (>50 = +++),382 (SPMHDRWTF; listed as Homo sapiens) [compound 382]
,“+++” (>50 = +++),383 (TPTKETVSL; listed as Homo sapiens) [compound 383]
,“++++” (>75% = ++++),384 (YPGLRGSPM; listed as Homo sapiens) [compound 384]
,“+++” (>50 = +++),385 (SPALHIGSV; listed as Homo sapiens) [compound 385]
,“++” (>20% = ++),386 (FPFNPLDF; listed as Homo sapiens) [compound 386]
,“+++” (>50 = +++),387 (APLKLSRTPA; listed as Homo sapiens) [compound 387]
,“++” (>20% = ++),388 (SPAPLKLSRTPA; listed as Homo sapiens) [compound 388]
,“+++” (>50 = +++),389 (SPGAQRTFFQL; listed as Homo sapiens) [compound 389]
,“+++” (>50 = +++),390 (NPDLRRNVL; listed as Homo sapiens) [compound 390]
,“+++” (>50 = +++),391 (APSTPRITTF; listed as Homo sapiens) [compound 391]
,“+++” (>50 = +++),392 (KPIESTLVA; listed as Homo sapiens) [compound 392]
